Data as given in patent publication US20240016931A1 (JIANGSU HENGRUI PHARMACEUTICALS, published 2024).
Substitutions are numbered along the chain they refer to.

B1: hu199-24 (antibody, human IgG1, kappa, V domains shown)
VH: EVQLVQSGAEVKKPGASVKVSCKASGYTFTTYWMHWVKQAPGQGLEWIGMIDPSDSETTLIQKFKDKATLTVDKSTSTAYMELSSLRSEDTAVYYCARTLDGYYDYWGQGTTVTVSS
VL: DIQMTQSPSSLSASVGDRVTITCRASENIYSYLAWYQQKPGKSPQLLVYFAKTLAEGVPSRFSGSVSGTQFTLTISSLQPEDFATYYCQHHYGTPWTFGGGTKVEIKR
notes: IgG1-YTE, kappa
B2: Ch199 (antibody, human IgG1, kappa, V domains shown)
VH: QVQLQQSGPQLVRPGASVKISCKASGYSFTTYWMHWVKQRPGQGLEWIGMIDPSDSETTLIQKFKDKATLTVDKSSSTAYMQLSSPTSEDSAVYYCARTLDGYYDYWGQGTTLTVSS
VL: B1 VL with S9A, D17E, R18T, P40Q, T72S, T74K, S76N, A84G, T85S, V104L
notes: murine variable regions on human IgG1-YTE / kappa; also called Chi 99; chimeric antibody corresponding to mab199
B3: hu199-26 (antibody, human IgG1, kappa, V domains shown)
VH: B1 VH with I48M, A68V, L70M
VL: B1 VL with S43A, Q45K, V66G, Q70D
notes: IgG1-YTE, kappa
B4: hu199-31 (antibody, human IgG1, kappa, V domains shown)
VH: B1 VH with I48M, A68V
VL: B1 VL with S43A, Q45K, V48I, V66G, Q70D
notes: IgG1-YTE, kappa
B5: hu199-32 (antibody, human IgG1, kappa, V domains shown)
VH: B1 VH with I48M, A68V
VL: B1 VL with S43A, Q45K, V66G, Q70D
notes: IgG1-YTE, kappa
B6: hu199-35 (antibody, human IgG1, kappa, V domains shown)
VH: B1 VH with I48M, A68V
VL: B1 VL with S43A, Q45K, Q70D
notes: IgG1-YTE, kappa
B7: hu199-25 (antibody, human IgG1, kappa, V domains shown)
VH: B1 VH with I48M, A68V, L70M
VL: B1 VL with S43A, Q45K, V48I, V66G, Q70D
notes: IgG1-YTE, kappa
B8: hu199-33 (antibody, human IgG1, kappa, V domains shown)
VH: B1 VH with I48M, A68V
VL: B1 VL with V66G
notes: IgG1-YTE, kappa
B9: hu199-27 (antibody, human IgG1, kappa, V domains shown)
VH: B1 VH with I48M, A68V, L70M
VL: B1 VL with V66G
notes: IgG1-YTE, kappa
B10: hu199-34 (antibody, human IgG1, kappa, V domains shown)
VH: B1 VH with I48M, A68V
VL: B1 VL with S43A, Q45K, V48I, Q70D
notes: IgG1-YTE, kappa
B11: hu199-28 (antibody, human IgG1, kappa, V domains shown)
VH: B1 VH with I48M, A68V, L70M
VL: B1 VL with S43A, Q45K, V48I, Q70D
notes: IgG1-YTE, kappa
B12: hu199-30 (antibody, human IgG1, kappa, V domains shown)
VH: B1 VH with I48M, A68V, L70M
VL: B1 VL
notes: IgG1-YTE, kappa
B13: hu199-29 (antibody, human IgG1, kappa, V domains shown)
VH: B1 VH with I48M, A68V, L70M
VL: B1 VL with S43A, Q45K, Q70D
notes: IgG1-YTE, kappa

Key:
[1] = target: T1, Fc-tagged human TSLP antigen (huTSLP-Fc) (human, biotin-labeled in the blocking assays); assay: competition ELISA: blocks TSLP binding to TSLP receptor
T1 construct: whole entry named; also called recombinant human TSLP-Fc

[2] = target: T2, His-tagged human TSLP antigen (huTSLP-his) (human); assay: ELISA, coated huTSLP-his;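 note: binding of antibodies to plate-bound TSLP read as absorbance at 450 nm after TMB colour development, EC50 derived from binding curves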
T2 construct: Secreted from HEK293E and purified on nickel; whole entry named; also called Human TSLP-his

IC50 [1] | EC50 [2] | Binder
0.496 nM |  | B1
0.427 nM | 0.516 nM | B2
0.365 nM |  | B3
0.304 nM |  | B4
0.287 nM |  | B5
0.485 nM |  | B6
0.246 nM |  | B7
0.205 nM |  | B8
0.354 nM |  | B9
0.711 nM |  | B10
0.462 nM |  | B11
0.349 nM |  | B12
0.554 nM |  | B13
